# Source: patent US20120230976
# Biological target: mixture of gliadins (SIGMA Cat. No. G3375)
protein,measurement,value
neprilysin from Rothia mucilaginosa ATCC 25296 (RefSeq ZP_05367591) (protein) MTTNSGITKEWVDETVKPGDDFFRHVNGKWLATHEIPADRPKDGGLYTLRDNAEKHVRELVEKIAKEQPESRIGALYNSFMDVEKIEADGLEPLLKEIAPILNSATPSHLAVTLALLSRAGLPQLFAWYTSNDPKDPKNYTFFLYQSGLGLPDESYYREEKHEAACAAYVEHIARMFQLTGLAEGFGLTPEQAAQLVFTHESELARLHWNVVENRDAEATYNPYQATELDEKFPGFPFSQWLLALGADPETLGQVIVAQPSFFEGAAKLFTSIPLMSWKLWAVWTVLRSRAPFMYDELVQESFNFYGKTLSGTQQIRERWKRGVGAVEKALGEEIGQEYVAVHFPPSHKEKMLVLVGNLLEAYRESIESLDWMTEATRQKALEKLSKFVTKIGYPDKWRDFSALELVPGDLFENLRRTGAFDADWLIARKGQPVDKAEWLMTPQTVNAYYMPPANEIVFPAAILQPPYFNPDADDAANYGNIGMIIGHEIGHGFDDQGSRYDGDGKLESWWTEEDYAKFKERTAALVEQYNAYVPVGLDPKFHVNGELTLGENIGDLAGMSIALKAYRLALKKQGIESLADAPVIDGMTGIQRFFFSNARGWCTKSRPQHAEVMISVDPHSPDEFRVNGVVRNIDEFYEAFGVSEGDALYLAPEERVRIW,gliadin zymography (proteolytic activity),The clear bands observed in the zymogram gel confirmed proteolytic activity towards gliadin
